Test results taken from the DeepSol protein solubility set.

Assay: soluble on expression in E. coli; label from the status in PepcDB or PDB records
In the case of “MSLGYQYDTLIYNVRIASMQDNKLPYGELPPHAIAIKDGKIAALLPCDDSLDDVFEQAKSVIDATTLIPQNEGSTPKPPWLLPGFIDCHTHLVYGGNRAEEFEMRLQGASYVDIAQRGGGIKGTVEKTRCSDENTLLHTAIKRAKRLCEEGVTTIEVKSGYGLDLDTEVRMLRVAKSLEQHLPVSIKTTYLGAHALPNEFADDSEGYIDFICNEALPHIASQNLADAVDVFCETIGFSTSQTERVFSCAQQHGLPIKAHVEQLSDSKGAVLAAKYGALSVDHIEYLADSDIPLLAQSGTVAVLLPGAFYYLSEVQKPPVDALRAHNVPMALATDFNPGSSPLASILTAINMGCVLFQLTPEEALRGATAHAASALGLHDRGVIEAGKLADLTLWDIETPAELAYCINGHRPIAVFKEGKHVEGHHHHHH”, the “soluble on expression in E. coli” value was “soluble”. With “QNYSIERDVRLAPGEHFQIEGYDFYFSGLRDKDGPNYDGYIADFEITHDGKYINTLHAEKRFYRTAKSMMTEAAIDRGITRDLYIAMGERLDDNRSWAVRIYYKPFVR” the “soluble on expression in E. coli” value was “not soluble”. With “MVTILDRTSSDEKRIRHPEKAHRPDTEVMRKPEWIRVKAPTSKGYHETRELVRSHKLVTVCEEAGCPNIGECWEKKHATFMIMGEICTRACAFCNVATGKPNALDMDEPENVAKAVKQMGLSHVVITSVDRDDLADGGAEHFEKVIWAIRAASPTTTIEILTPDFLKKPGALERVVAAKPDVFNHNMETVPGNYLTVRPGARYFHSVRLLQRVKELDPTMFTKSGIMVGLGEERNEVLQLMDDLRSADVDFLTIGQYLQPTRKHHKVEAFVTPEEFKSYETVAYAKGFLMVSSSPLTRSSHHAGDDFERLRAAREKKLLAAAE” the “soluble on expression in E. coli” value was “not soluble”. In the case of “STAGKVIKCKAAVLWEEKKPFSIEEVEVAPPKAHEVRIKMVATGICRSDDHVVSGTLVTPLPVIAGHEAAGIVESIGEGVTTVRPGDKVIPLWTPQCGKCRVCKHPEGNFCLKNDLSMPRGTMQDGTSRFTCRGKPIHHFLGTSTFSQYTVVDEISVAKIDAASPLEKVCLIGCGFSTGYGSAVKVAKVTQGSTCAVFGLGGAGLSVIMGCKAAGAARIIGVDINKDKFAKAKEVGATECVNPQDYKKPIQEVLTEMSNGGVDFSFEVIGRLDTMVTALSCCQEAYGVSVIVGVPPDSQNLSMNPMLLLSGRTWKGAIFGGFKSKDSVPKLVADFMAKKFALDPLITHVLPFEKINEGFDLLRSGESIRTILTF”, the “soluble on expression in E. coli” value was “soluble”. With “MGSDKIHHHHHHMTKKTGFFKRLKALELPQKQLFAIALCQRMLPNYQLFSEVCEFGDPAVLNTVLELLWQSQYDNKLKFNIDVHLQRLEDNTPDPVDFEAYGVYPAMDAVVALSTLLSAIQDKNEEDIINISKLSSSTVANYIEAISDVDLVDDALDDFVFAHEVMEEEKELQNSLLEIIEENPKITAELVKGLRKDIIEAGVSNIGISIA” the “soluble on expression in E. coli” value was “not soluble”. With “GPGSMTSKKAAKEKDEYTPQERLTAAALEYKKLEGHNQSSIERMYGALSSPFRVSNKPCEVPRAAVLRCFEEILGKTNNGENGSTDNLAETTVVGRSISGGNNADGRVLLSSDSRFPSVHRCYDAVLQYESCVVEKTLAQHHSLLAGFEARQLQEAESANEVPKAVASGA” the “soluble on expression in E. coli” value was “not soluble”. With “MAHHHHHHMSEAALKREIALQEASDVVDNKSRVLPKSPADTRERTHEVVAATEPFEHPISLRSKVSAYVTLALLFLFARLRESYRQFFPNDESHVRPGYAPIVKDFDHYWNRRFYRRVRDCFMRPIDSRPSRVIGVMERVSKDNNQTFEYSGRIVPAVNMGSYNYLGFAEDTQSITHEVLDSIDDYGLASCSAPQGLGQSALVSRLEHEFAEFLGKEDAIVCGMGFATNFRGLPTLFGKETLVLSDSLNHSSLVNGVRSSGAKVKVFQHNHFGQVEKCLREGVVLGQDPCGEYKPYKRIVIIIEGIYSMEGEIVNLKKFVELKKKYKALLFVDEAHSIGAIGRTGRGVCEHTGVDPKDVDVLMGTFTKSFGSIGGYIAADKTLVRYLRQHSSIALHCDPLAPPCAQQVLSVLHVLLGKDGTDLGEKRIRQLKDNSSFFRRGLMDLGLVVLGDDSSPVVPVMCYSIGRLSALSRLCLERGVAIVIVGYPATPLLQGRVRFCVSACHTREDLQRTLDVIRELKGYVCMEDSTNPLR” the “soluble on expression in E. coli” value was “not soluble”. With “MQELKDKIKKLGYEEIKDIDDATFIASHKNVYVYVKKVDEEQLKPELVTAITYEAMATDPISTYAWITNGTSNAYVLVEEEKAVSEIPSVFEDENKLYSGKRQLTDRDKWSIRKYQELQEKFDGLHEMIYGMKDHVNNSNDVIDEFSKLIFLETFRLYHPEYRLTKGNVTGKLFNEIYRYEYVEKHKDKAVQEIREAFKEIKDHADYVAILDNGEKANIFSADEYIKLENPNIYIAVLKALQDLGTIIIDGVERPATLRDLTGDVLGRVFDVLLRGKFENKGGMGIYLTPRQVTEAAAEMVLHDLTKDGAAKLIAKDPKTGIPTLRIGDLCCGSGGFLIKMLQKIEHYLLNKLTGDKKQYEELFEQMKEHCFIGADNAPGMVLKARINMALHGAPKCPIFQTRNSLMNTRLKPGTFDAILTNPPFSKTGISKTIKKGKTTVENPEGAEIIKYYSSDIDEDGQNRMSPYGLSLGSKPDSRGKWKEVNSVDPAVLFIDRNLQLLKPGGLLMIVVPDGILSNSGDKYVREYIMGKKNPVTGEFEGGKAILKAVISLPQVTFALSGAGAKTSLLYLKKKEHPGEKQGPVFMAVADEVGFTVKQNVEVQLGDDHNDLLKIVEAYKKGMPEDVE” the “soluble on expression in E. coli” value was “not soluble”. With “MGSDKIHHHHHHMATKHEQILQYITNLEVGEKISVRRIAKDLQVSEGTAYRAIKEAENQGLVSTIERVGTIRIEKKQKENIEKLTYAEVVNIVDGQVLGGRDGLHKTLNRFVIGAMKLDAMMRYVEPGNLLIVGNRYQVHQIALEAGAAVLITGGFDTSDEAIKLADELDLPVISTSYDTFTVATMINRAIYDQLIKKEITLVDDILIPLQDTYYMTTENVVGKWHELNEKTGHSRYPVIDENMKIQGMVAAKDVLNASRHTPIEKVMTKNPITVSERTSVAAVAHVMVWEGIELLPVIDSHRKLIGVVSRQDVLKALQMIQRQPHVGETIEDLMTNGLNESSSDQGDSYEVEITPQMTNQLGTISHGVMTSLVIESGSRVLRKYKKGDLVVENITLYFLKPVQIDSRLTIRPRVLEIGRKHGKIDVEMYHEGEIVGKALFMAQIID” the “soluble on expression in E. coli” value was “not soluble”. In the case of “MPGYAQYRSFSEDLSMNMEEIVALSVKHNVSDLHLCSAWPARWRIRGRMEAAPFDAPDVEELLREWLDDDQRAILLENGQLDFAVSLAENQRLRGSAFAQRQGISLALRLLPSHCPQLEQLGAPPVLPELLKSENGLILVTGATGSGKSTTLAAMVGYLNQHADAHILTLEDPVEYLYASQRCLIQQREIGLHCMTFASGLRAALREDPDVILLGELRDSETIRLALTAAETGHLVLATLHTRGAAQAVERLVDSFPAQEKDPVRNQLAGSLRAVLSQKLEVDKQEGRVALFELLINTPAVGNLIREGKTHQLPHVIQTGQKVGMLTFQQSYQQRVGEGRL”, the “soluble on expression in E. coli” value was “not soluble”. For “MKLLHTADLHMDRSFEGLTGIPTALAKRLREANQQLLMNIVTVAIREAVDLVIFAGDTFHQSQTSISMQAQLMAALEQLKQAEIPVILTFGNHDYYKKDRYWFSFPDNVFLFEKEMVETLYFETKAGEQVAVSGFSYEHPWIDENKALEFPIKQAESDIHIGIYHGDTSRKAQQNYAPFTWKDLKATGYNYWALGHIHQPQIVSEQPLIVYPGTPQGHTKKEQSLQGVAVVTLSQNQATVQFEKVAEIDWTNEEVSLAQCRDTQSVLSYLETSLLTKWQAHQQQQLMALTLKETQHLDVTVVQAIVNGELLSYLQQQLLQKTQGDFFVYRLILQAEEPTKEPIYLAASPNLLTALEKTYLDPVIFEDTTKELLRYPEFAGIFSMDEQWRLESLRLAHEQINEDFTIQEDPL”, the “soluble on expression in E. coli” value was “not soluble”. For “MPFVVIITGIPGVGKSTITKLALQRTRAKFKLINFGDLMFEEALKLKLVKHRDEMRKLPLEVQRELQMNAAKKIAEMAKNYPILLDTHATIKTPHGYLLGLPYEVIKILNPNFIVIIEATPSEILGRRLRDLKRDRDVETEEQIQRHQDLNRAAAITYAMHSNALIKIIENHEDKGLEEAVNELVKILDLAVKEYA”, the “soluble on expression in E. coli” value was “soluble”. In the case of “MNWEQKSSMLKKKIERIKEIETTLWGNLEKCELCPRKCGVDRYRTTGICGLPARAKISNAVLHFGEEPPISGKTGAGTVFFSGCNMKCVYCQNMGFSQKGIGTEVEVEDLAEIFLILQKHGAKTLNLVTPTPHLPFIISALRIAIENGLNLPIVYNTSGYEDPEILRLLEGVVDIYLSDVRYSDNEASKKYSKTPDYWTVVQKAIVEMFRQVGIFDEEKMKGLIVRILVLPGNVVDYSEIFSFLSSLSTRIPLSIMNQYIPHFDAQKFPEISRKLNQNEYEKILELAERYGFTEGWYQSEEKERVTTRGLKEISEKLQFLRLKTHNSY”, the “soluble on expression in E. coli” value was “not soluble”. For “MSLKLHKGIKEYECKECHRRFAQKVNMLKHCKRHTGIKDFMCELCGKTFSERNTMETHKLIHTVGKQWTCSVCDKKYVTEYMLQKHVQLTHDKVEAQSCQLCGTKVSTRASMSRHMRRKHPEVLAVRIDDLDHLPETTTIDASSIGIVQPELTLEQEDLAEGKHGKAAKRSHKRKQKPEEEAGAPVPEDATFSEYSEKETEFTGSVGDETNSAVQSIQQVVVTLGDPNVTTPSSSVGLTNITVTPITTAAATQFTNLQPVAVGHLTTPERQLQLDNSILTVTFDTVSGSAMLHNRQNDVQIHPQPEASNPQSVAHFINLTTLVNSITPLGSQLSDQHPLTWRAVPQTDVLPPSQPQAPPQQAAQPQVQAEQQQQQMYSYEGHHHHHH”, the “soluble on expression in E. coli” value was “not soluble”. With “TADVRTAENMGVRAYTVATAITFQGSGSYRGERWVDSADIIRQIESLSAEMEPAVAKIGLIRDSDTLSLVVDCLKKVFPSIRIVWDPVLRASADSSAGQADRFNLEDITALSRIDFITPNLPEARHLLGCEPDDETLLDFYRRSGVGLVLKGGHAGESVVTDRIVYDGRCEALRLLRGGTGKHGTGCAHSTAFAAALALEQEPFTAAGMAQLYVSRLRERASGLLAMHKDLPVDPVVR” the “soluble on expression in E. coli” value was “not soluble”. In the case of “MEMDLPVSAIGFEGFEKRLEISFVEPGLFADPNGKGLRSLSKAQLDEILGPAECTIVDNLSNDYVDSYVLSE”, the “soluble on expression in E. coli” value was “soluble”. With “MSLGAFLDKPKTEKHNAHGAGNGLRYGLSSMQGWRVEMEDAHTAVVGIPHGLEDWSFFAVYDGHAGSRVANYCSTHLLEHITTNEDFRAAGKSGSALELSVENVKNGIRTGFLKIDEYMRNFSDLRNGMDRSGSTAVGVMISPKHIYFINCGDSRAVLYRNGQVCFSTQDHKPCNPREKERIQNAGGSVMIQRVNGSLAVSRALGDYDYKCVDGKGPTEQLVSPEPEVYEILRAEEDEFIILACDGIWDVMSNEELCEYVKSRLEVSDDLENVCNWVVDTCLHKGSRDNMSIVLVCFSNAPKVSDEAVKKDSELDKHLESRVEEIMEKSGEEGMPDLAHVMRILSAENIPNLPPGGGLAGKRNVIEAVYSRLNPHRESDGGAGDLEDEGHHHHHH” the “soluble on expression in E. coli” value was “soluble”. In the case of “MKLSPATKSFIGKTVDISTFAIQWGFVPFVVYLGFKKGAEPMPNGQILPLSAMSLLWG”, the “soluble on expression in E. coli” value was “not soluble”. For “NQKDFDRTMVIDERTELVARTITDYLKRTNPMDKTIVFCNDIDHAERMRRALVNLNPEQVKKNDKYVMKITGDDEIGKAQLDNFINPKKPYPVIATTSELMTTGVDAKTCKLVVLDQNIQSMTKFKQIIGRGTRIDERYGKLWFTILDFKKATELFADERFDGIPEKVMDTTPEDIAD”, the “soluble on expression in E. coli” value was “not soluble”. With “MIIMYAIGIGDNKEEVLKAYEKLKEEGIEVELIDNPKLLVDKLLDGEIDGAVRGSLSSSKVILYLRERIGKFYRASILKNPFTNGIFLLSPVGIDDISEDKNERIKDKIRIIEFASNFLKNYNIKAKVAVLSGGRLGDLGRNKVVDETIYEAEEIVEHFKGNVDIIHNGILIEEYLKDGYNIIIAVDGITGNLIFRCLGLICKIPGYGAVILSDKNVNFIDTSRNANWERYYNAIKFLIGGDFG” the “soluble on expression in E. coli” value was “soluble”.
